Data taken from patent publication US8632772B2, “Methods of treating multiple myeloma using combination therapies based on anti-CS1 antibodies” (Dana-Farber Cancer Institute, priority 2006, dated 2014).

Columns and labels:
patient MM cells = test: calcein-AM release ADCC assay, autologous patient MM cells with PBMC effector cells; assay type: cell-based, human
Method: (§1) ADCC was measured by calcein-AM release assay, with sensitivity similar to traditional Cr^51 assay, as described previously. After informed consent, peripheral blood mononuclear cells (PBMCs) including natural killer (NK) effector cells were isolated from leukopheresis products of normal donors or peripheral blood from MM patients. Increasing concentrations (0-10 μg/ml) of either HuLuc63 or human isotype control IgG1 MSL109 mAbs were added at effector:target (E:T) ratios of 20:1, in a final volume of 200 μl per well. In some experiments, PBMC effector cells were pretreated with lenalidomide for 3 days at 0.2 μM before HuLuc63-mediated ADCC assays were performed. After 4 h incubation, 100 μl culture supernatants were transferred to a Black ViewPlate™-96 plate and arbitrary fluorescent units (AFU) were read on a fluorometer (Wallac VICTOR2). This assay is valid only if (AFU mean maximum release−medium control release)/(AFU mean spontaneous release−medium control release)>7. Calculation of % specific lysis from triplicate experiments was done using the following equation: […]
HuLuc63-mediated lysis of patient MM cells by effector cells from the same patient was measured using an ADCC assay.
HuLuc63-mediated lysis of patient myeloma cells by PBMC effector cells from the same patient was measured using an ADCC assay. CD138-purified tumor cells from a patient with MM were incubated with autologous effector cells in the presence of serial dilutions of HuLuc63 (solid symbols) or isotype control IgG1 (open symbols). PBMC effector cells were pre-incubated for 3 days in the presence or absence of with lenalidomide […] (square symbols) or vehicle control (round symbols), followed by HuLuc63-mediated ADCC. […] Similarly, pretreatment of effector cells with lenalidomide enhanced HuLuc63-induced lysis of myeloma cell lines (FIGS. 3A and 3B).

myeloma cell lines = test: calcein-AM release ADCC assay, myeloma cell lines, effector cells pretreated with lenalidomide; assay type: cell-based, human
Method: as §1
HuLuc63-mediated lysis of patient myeloma cells by PBMC effector cells from the same patient was measured using an ADCC assay. […]

OPM2 tumor [1] = test: OPM2 xenograft mouse model, second experiment (clinic-like bortezomib schedule); assay type: in vivo, mice; conditions: HuLuc63 1 mg/kg ip twice a week, 10 doses; bortezomib 1 mg/kg ip twice weekly weeks 1, 2, 4, 5
Method: In a second experiment, HuLuc63 was combined with bortezomib in vivo, using a different dose and dosing schedule for bortezomib, while keeping the original HuLuc63 dose and dosing schedule. OPM2 cells were inoculated into the flanks of SCID mice. When tumors reached an average size of about 100 mm3, animals were randomized into 4 groups of 15 mice each and were treated with 1 mg/kg of antibody administered intraperitoneally twice a week for a total of 10 doses. Bortezomib was administered intraperitoneally at a dose of 1 mg/kg twice for weeks 1 and 2, no treatment for week 3, and 1 mg/kg twice for weeks 4 and 5 for a total of 8 doses. The intent for this dosing schedule was to more closely mimic the dosing schedule of bortezomib in the clinic, where each treatment cycle consists of 2 weeks of dosing, with one week off. Tumor growth was monitored for a period of 1-2 months.

OPM2 myeloma cells = test: 51Cr release ADCC assay, OPM2 cells with NK cells from healthy donors; assay type: cell-based, human; conditions: bortezomib 10 nM, 18 hrs; NK effector cells from healthy donors
Method: OPM2 myeloma cells were harvested at mid-log phase, suspended at a density of 1.0×10^6 cells/mL in complete media (RPMI with 10% FBS) and treated overnight with or without Velcade (10 nM). Cells were collected, washed, re-suspended at a density of 20×10^6 viable cells/mL, and labeled for one hour with […] Na2[^51Cr]O4 per 10^6 cells. ^51Cr-Labeled cells were washed then added to a 96-well V-bottomed polystyrene plate at a cell density of 15,000 cells per 75 μL RPMI supplemented with 10% heat-inactivated FBS. HuLuc63 and a human IgG1 isotype control antibody MSL-109 were added to target cells for a final antibody concentration ranging from 0.001 to 10 μg/mL. NK cells were enriched from the whole blood of healthy donors using the RosetteSep human NK cell enrichment cocktail (Stem Cell Technologies). The enriched NK cells were added to Velcade treated or untreated OPM2 cells at a ratio of 10:1. After a 4-hour incubation at 37° C., cells were centrifuged and the supernatants measured for released ^51Cr. Maximum release was determined from target cells lysed with […] Digitonin. Antibody independent cellular cytotoxicity (AICC) was determined using target cells, plus media, plus NK cells, while spontaneous lysis was determined using ^51Cr-labelled cells plus media without NK effectors. % Cytotoxicity was calculated as ((sample−AICC)/(Maximum−AICC)*100. […]

CS1 = CS1 protein expression on OPM2 cell line (flow cytometry); assay type: cell-based, human; conditions: OPM2 multiple myeloma cell line
Method: The effect of HuLuc63 and bortezomib treatment on expression of CS1 in MM cell lines and mouse xenograft tumors was examined by flow cytometry and immunohistochemistry respectively.
The combination of HuLuc63 with bortezomib was then tested for anti-myeloma activity in vitro using ADCC assays. […] OPM2 cells were pretreated with vehicle control (square symbols) or bortezomib (10 nM; round symbols) for 18 hrs and were then subjected to HuLuc63 mediated ADCC using human NK cells from healthy donors. HuLuc63 (closed symbols) and isotype control antibody (open symbols) were used at doses ranging from 0.001-10 μg/ml.

MHC class I = conditions: bortezomib treatment of myeloma cells; cited from earlier work
myeloma tumor = conditions: myeloma mouse tumor model; cited from earlier work
OPM2 tumor [2] = test: OPM2 xenograft mouse model, first experiment; assay type: in vivo, mice; conditions: HuLuc63 1 mg/kg ip twice weekly, 6 doses; bortezomib 0.75 mg/kg ip twice a week
Method: Six- to eight-week old female IcrTac:ICR-Prkdc^scid mice obtained from Taconic Farms (Germantown, N.Y.) were inoculated with 1×10^7 OPM2 (American Type Culture Collection) cells into the lower right flank. Caliper measurements were performed twice weekly to calculate tumor volume using the following formula: L×W×H/2, where L (length) is the longest side of the tumor in the plane of the animal's back, W (width) is the longest measurement perpendicular to the length and in the same plane and H (height) is taken at the highest point perpendicular to the back of the animal. When tumors reached an average size of about 100 mm^3, animals were randomized into 3 groups of 8-10 mice each and were treated with 1 mg/kg of antibody administered intraperitoneally twice a week for a total of 6 doses. […] Tumor growth was monitored for a period of 1-2 months.

myeloma cells = conditions: cited from earlier work

Molecule	effect of pre-incubation of PBMC effector cells on HuLuc63-mediated ADCC activity, autologous patient sample (patient MM cells; lenalidomide (0.2 µM) for 3 days before ADCC)	effect of pretreatment of effector cells on HuLuc63-induced lysis of myeloma cell lines (myeloma cell lines)	anti-tumor activity (OPM2 tumor [1])	effect of pre-treatment of OPM2 cells on HuLuc63-mediated ADCC (OPM2 myeloma cells)	change in CS1 expression pre- or post-treatment (CS1)	cell-surface expression of MHC class I on myeloma cells (MHC class I)	reduction of tumor mass (myeloma tumor)	anti-tumor activity (OPM2 tumor [2])	autologous myeloma cell lysis (ADCC) (patient MM cells; patient MM cells with effector cells from the same patient, 0-10 μg/ml, E:T 20:1)	autologous tumor cell lysis in patients with MM resistant or refractory to bortezomib and/or 17-AAG (patient MM cells; resistant or refractory patient tumor cells, autologous effector cells)	lysis of myeloma cells via ADCC (myeloma cells)
Nc1cccc2c1CN(C1CCC(=O)NC1=O)C2=O (stereo not shown) [lenalidomide, reference compound]	significantly increased the ADCC activity	enhanced	–	–	–	–	–	–	–	–	–
CC(C)C[C@H](NC(=O)[C@H](Cc1ccccc1)NC(=O)c1cnccn1)B(O)O [bortezomib, reference compound]	–	–	significant anti-tumor activity	significantly enhanced	no significant change	down-modulation	–	–	–	–	–
HuLuc63: humanized recombinant monoclonal IgG1 antibody directed to human CS1; heavy chain variable region SEQ ID NO: 5, light chain variable region SEQ ID NO: 6 (antibody, listed as Homo saiens, listed as Homo sapiens, V domains shown) VH: EVQLVESGGGLVQPGGSLRLSCAASGFDFSRYWMSWVRQAPGKGLEWIGEINPDSSTINYAPSLKDKFIISRDNAKNSLYLQMNSLRAEDTAVYYCARPDGNYWYFDVWGQGTLVTVSS VL: DIQMTQSPSSLSASVGDRVTITCKASQDVGIAVAWYQQKPGKVPKLLIYWASTRHTGVPDRFSGSGSGTDFTLTISSLQPEDVATYYCQQYSSYPYTFGQGTKVEIK	–	–	significant anti-tumor activity	–	no significant change	–	more than 50%	significant anti-tumor activity	induced significant autologous myeloma cell lysis	demonstrated	effectively mediates lysis
